Laboratory results: patent US20220406376A1 (MacroGenics, published 2022)

What was measured:
[1] = molecular target: T1, HER2/neu on the surface of target cells (N87, JIMT-1, MCF-7, MDA-MB231) (UniProt P04626 23-1255, limits assumed); assay: flow cytometry on N87 gastric cancer cells, anti-hFc APC MFI
T1 construct: whole, on cells

[2] = molecular target: T1, HER2/neu on the surface of target cells …; assay: flow cytometry on MCF-7 cells, anti-hFc APC MFI
[3] = molecular target: T2, CD137 on the surface of cells (activated human T cells; engineered CHO cells) (human, UniProt Q07011 24-255); assay: flow cytometry on activated pan T cells (donor D46433, CD8 PE), anti-hFc APC MFI
T2 construct: whole, on cells; also called human CD137; cell surface expressed CD137
T2 sequence (Q07011 24-255, change not shown): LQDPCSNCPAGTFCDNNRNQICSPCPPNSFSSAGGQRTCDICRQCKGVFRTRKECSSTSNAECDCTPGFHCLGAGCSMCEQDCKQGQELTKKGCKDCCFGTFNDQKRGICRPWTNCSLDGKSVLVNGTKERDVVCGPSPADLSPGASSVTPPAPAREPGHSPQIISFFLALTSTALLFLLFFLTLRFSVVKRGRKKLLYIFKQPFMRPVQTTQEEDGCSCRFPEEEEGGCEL

[4] = molecular target: T1, HER2/neu on the surface of target cells …; assay: flow cytometry on JIMT-1 cells, anti-hFc APC MFI
[5] = molecular target: T1, HER2/neu on the surface of target cells …; assay: flow cytometry on N87 cells, anti-hFc APC MFI
[6] = molecular target: T2, CD137 on the surface of cells …; assay: flow cytometry on activated pan T cells gated CD8, anti-hFc APC MFI

B1: DART-2 (bispecific antibody)
chain 1: not shown
chain 2: SYELTQPPSVSVSPGQTASITCSGDNIGDQYAHWYQQKPGQSPVLVIYQDKNRPSGIPERFSGSNSGNTATLTISGTQAMDEADYYCATYTGFGSLAVFGGGTKLTVLGGGSGGGGQVQLVQSGAEVKKPGASVKVSCKASGYTFTNYGMNWVRQAPGQGLEWMGWINTNIGEPTYTEEFKGRVTMTRDTSISTAYMELSRLRSDDTAVYYCARDDGYGNRVSYWGQGTLVTVSSGGCGGGKVAACKEKVAALKEKVAALKEKVAALKE
With B1 the “EC50 (read off the curve)” value [1] was ~0.4 nM.

B2: TRIDENT-A4 (bispecific antibody, human IgG1, kappa, L234A L235A)
chain 1: DIQMTQSPSSLSASVGDRVTITCRPSQDISNYLNWYQQKPDKTVKLLIYYTSRLRSGVPSRFSGSGSGTDFTFTISSLQPEDIATYFCQQGDTLPYTFGQGTKLEIKGGGSGGGGQVQLVQSGAEVKKPGASVKVSCKASGYTFTSYWINWVKQAPGQGLEWIGNIYPSDSYTNYNQKFKDKATITADKSTSTAYMELSSLRSEDTAVYYCTRDYGSSYSYNVWGQGTTVTVSSASTKGEVAACEKEVAALEKEVAALEKEVAALEKGGGDKTHTCPPCPAPEAAGGPSVFLFPPKPKDTLMISRTPEVTCVVVDVSHEDPEVKFNWYVDGVEVHNAKTKPREEQYNSTYRVVSVLTVLHQDWLNGKEYKCKVSNKALPAPIEKTISKAKGQPREPQVYTLPPSREEMTKNQVSLWCLVKGFYPSDIAVEWESNGQPENNYKTTPPVLDSDGSFFLYSKLTVDKSRWQQGNVFSCSVMHEALHNHYTQKSLSLSPGK
chain 2: DIQMTQSPSSLSASVGDRVTITCRPSQDISNYLNWYQQKPDKTVKLLIYYTSRLRSGVPSRFSGSGSGTDFTFTISSLQPEDIATYFCQQGDTLPYTFGQGTKLEIKGGGSGGGGQVQLVQSGAEVKKPGASVKVSCKASGYTFTSYWINWVKQAPGQGLEWIGNIYPSDSYTNYNQKFKDKATITADKSTSTAYMELSSLRSEDTAVYYCTRDYGSSYSYNVWGQGTTVTVSSASTKGKVAACKEKVAALKEKVAALKEKVAALKE
heavy: QVQLVQSGAEVKKPGASVKVSCKASGYTFTNYGMNWVRQAPGQGLEWMGWINTNIGEPTYTEEFKGRVTMTRDTSISTAYMELSRLRSDDTAVYYCARDDGYGNRVSYWGQGTLVTVSSASTKGPSVFPLAPSSKSTSGGTAALGCLVKDYFPEPVTVSWNSGALTSGVHTFPAVLQSSGLYSLSSVVTVPSSSLGTQTYICNVNHKPSNTKVDKRVEPKSCDKTHTCPPCPAPEAAGGPSVFLFPPKPKDTLMISRTPEVTCVVVDVSHEDPEVKFNWYVDGVEVHNAKTKPREEQYNSTYRVVSVLTVLHQDWLNGKEYKCKVSNKALPAPIEKTISKAKGQPREPQVYTLPPSREEMTKNQVSLSCAVKGFYPSDIAVEWESNGQPENNYKTTPPVLDSDGSFFLVSKLTVDKSRWQQGNVFSCSVMHEALHNRYTQKSLSLSPGK
light: DIQMTQSPSSLSASVGDRVTITCKASQDISNYLSWFQQKPGKAPKTLIYRANRLQSGVPSRFSGSGSGTDFTLTISSLQPEDFATYYCLQHDEFPWTFGQGTKLEIKRTVAAPSVFIFPPSDEQLKSGTASVVCLLNNFYPREAKVQWKVDNALQSGNSQESVTEQDSKDSTYSLSSTLTLSKADYEKHKVYACEVTHQGLSSPVTKSFNRGEC
In the case of B2, the “EC50 (read off the curve)” value [2] is reported as ~0.2 nM, the “EC50 (read off the curve)” value [3] is reported as ~0.05 nM and the “EC50 (read off the curve)” value [4] is reported as ~0.7 nM. For the same binder, the “EC50 (read off the curve)” value [5] was ~1 nM.

B3: DART-5 (bispecific antibody, human IgG1, kappa, L234A L235A)
heavy: QVQLVQSGAEVKKPGASVKVSCKASGYTFTNYGMNWVRQAPGQGLEWMGWINTNIGEPTYTEEFKGRVTMTRDTSISTAYMELSRLRSDDTAVYYCARDDGYGNRVSYWGQGTLVTVSSASTKGPSVFPLAPSSKSTSGGTAALGCLVKDYFPEPVTVSWNSGALTSGVHTFPAVLQSSGLYSLSSVVTVPSSSLGTQTYICNVNHKPSNTKVDKRVEPKSCDKTHTCPPCPAPEAAGGPSVFLFPPKPKDTLMISRTPEVTCVVVDVSHEDPEVKFNWYVDGVEVHNAKTKPREEQYNSTYRVVSVLTVLHQDWLNGKEYKCKVSNKALPAPIEKTISKAKGQPREPQVYTLPPSREEMTKNQVSLSCAVKGFYPSDIAVEWESNGQPENNYKTTPPVLDSDGSFFLVSKLTVDKSRWQQGNVFSCSVMHEALHNRYTQKSLSLSPGK
light: DIQMTQSPSSLSASVGDRVTITCKASQDISNYLSWFQQKPGKAPKTLIYRANRLQSGVPSRFSGSGSGTDFTLTISSLQPEDFATYYCLQHDEFPWTFGQGTKLEIKRTVAAPSVFIFPPSDEQLKSGTASVVCLLNNFYPREAKVQWKVDNALQSGNSQESVTEQDSKDSTYSLSSTLTLSKADYEKHKVYACEVTHQGLSSPVTKSFNRGEC
chain 1: QVQLVQSGAEVKKPGASVKVSCKASGYTFTNYGMNWVRQAPGQGLEWMGWINTNIGEPTYTEEFKGRVTMTRDTSISTAYMELSRLRSDDTAVYYCARDDGYGNRVSYWGQGTLVTVSSASTKGPSVFPLAPSSKSTSGGTAALGCLVKDYFPEPVTVSWNSGALTSGVHTFPAVLQSSGLYSLSSVVTVPSSSLGTQTYICNVNHKPSNTKVDKRVEPKSCDKTHTCPPCPAPEAAGGPSVFLFPPKPKDTLMISRTPEVTCVVVDVSHEDPEVKFNWYVDGVEVHNAKTKPREEQYNSTYRVVSVLTVLHQDWLNGKEYKCKVSNKALPAPIEKTISKAKGQPREPQVYTLPPSREEMTKNQVSLWCLVKGFYPSDIAVEWESNGQPENNYKTTPPVLDSDGSFFLYSKLTVDKSRWQQGNVFSCSVMHEALHNHYTQKSLSLSPGGGGSGGGSGGGSYELTQPPSVSVSPGQTASITCSGDNIGDQYAHWYQQKPGQSPVLVIYQDKNRPSGIPERFSGSNSGNTATLTISGTQAMDEADYYCATYTGFGSLAVFGGGTKLTVLGGGSGGGGEVQLVQSGAEVKKPGESLRISCKGSGYSFSTYWISWVRQMPGKGLEWMGKIYPGDSYTNYSPSFQGQVTISADKSISTAYLQWSSLKASDTAMYYCARGYGIFDYWGQGTLVTVSSGGCGGGEVAALEKEVAALEKEVAALEKEVAALEK
chain 2: SYELTQPPSVSVSPGQTASITCSGDNIGDQYAHWYQQKPGQSPVLVIYQDKNRPSGIPERFSGSNSGNTATLTISGTQAMDEADYYCATYTGFGSLAVFGGGTKLTVLGGGSGGGGEVQLVQSGAEVKKPGESLRISCKGSGYSFSTYWISWVRQMPGKGLEWMGKIYPGDSYTNYSPSFQGQVTISADKSISTAYLQWSSLKASDTAMYYCARGYGIFDYWGQGTLVTVSSGGCGGGKVAALKEKVAALKEKVAALKEKVAALKE
B3 was tested, and the “EC50 (read off the curve)” value [1] was ~0.5 nM.

B4: DART-4 (bispecific antibody, human IgG1, kappa, L234A L235A)
heavy: QVQLVQSGAEVKKPGASVKVSCKASGYTFTNYGMNWVRQAPGQGLEWMGWINTNIGEPTYTEEFKGRVTMTRDTSISTAYMELSRLRSDDTAVYYCARDDGYGNRVSYWGQGTLVTVSSASTKGPSVFPLAPSSKSTSGGTAALGCLVKDYFPEPVTVSWNSGALTSGVHTFPAVLQSSGLYSLSSVVTVPSSSLGTQTYICNVNHKPSNTKVDKRVEPKSCDKTHTCPPCPAPEAAGGPSVFLFPPKPKDTLMISRTPEVTCVVVDVSHEDPEVKFNWYVDGVEVHNAKTKPREEQYNSTYRVVSVLTVLHQDWLNGKEYKCKVSNKALPAPIEKTISKAKGQPREPQVYTLPPSREEMTKNQVSLSCAVKGFYPSDIAVEWESNGQPENNYKTTPPVLDSDGSFFLVSKLTVDKSRWQQGNVFSCSVMHEALHNRYTQKSLSLSPGK
light: DIQMTQSPSSLSASVGDRVTITCKASQDISNYLSWFQQKPGKAPKTLIYRANRLQSGVPSRFSGSGSGTDFTLTISSLQPEDFATYYCLQHDEFPWTFGQGTKLEIKRTVAAPSVFIFPPSDEQLKSGTASVVCLLNNFYPREAKVQWKVDNALQSGNSQESVTEQDSKDSTYSLSSTLTLSKADYEKHKVYACEVTHQGLSSPVTKSFNRGEC
chain 1: QVQLVQSGAEVKKPGASVKVSCKASGYTFTNYGMNWVRQAPGQGLEWMGWINTNIGEPTYTEEFKGRVTMTRDTSISTAYMELSRLRSDDTAVYYCARDDGYGNRVSYWGQGTLVTVSSASTKGPSVFPLAPSSKSTSGGTAALGCLVKDYFPEPVTVSWNSGALTSGVHTFPAVLQSSGLYSLSSVVTVPSSSLGTQTYICNVNHKPSNTKVDKRVEPKSCDKTHTCPPCPAPEAAGGPSVFLFPPKPKDTLMISRTPEVTCVVVDVSHEDPEVKFNWYVDGVEVHNAKTKPREEQYNSTYRVVSVLTVLHQDWLNGKEYKCKVSNKALPAPIEKTISKAKGQPREPQVYTLPPSREEMTKNQVSLWCLVKGFYPSDIAVEWESNGQPENNYKTTPPVLDSDGSFFLYSKLTVDKSRWQQGNVFSCSVMHEALHNHYTQKSLSLSPGGGGSGGGSGGGEIVLTQSPATLSLSPGERATLSCRASQSVSSYLAWYQQKPGQAPRLLIYDASNRATGIPARFSGSGSGTDFTLTISSLEPEDFAVYYCQQRSNWPPALTFGGGTKVEIKGGGSGGGGQVQLQQWGAGLLKPSETLSLTCAVYGGSFSGYYWSWIRQSPEKGLEWIGEINHGGYVTYNPSLESRVTISVDTSKNQFSLKLSSVTAADTAVYYCARDYGPGNYDWYFDLWGRGTLVTVSSGGCGGGEVAALEKEVAALEKEVAALEKEVAALEK
chain 2: EIVLTQSPATLSLSPGERATLSCRASQSVSSYLAWYQQKPGQAPRLLIYDASNRATGIPARFSGSGSGTDFTLTISSLEPEDFAVYYCQQRSNWPPALTFGGGTKVEIKGGGSGGGGQVQLQQWGAGLLKPSETLSLTCAVYGGSFSGYYWSWIRQSPEKGLEWIGEINHGGYVTYNPSLESRVTISVDTSKNQFSLKLSSVTAADTAVYYCARDYGPGNYDWYFDLWGRGTLVTVSSGGCGGGKVAALKEKVAALKEKVAALKEKVAALKE
For B4, the “EC50 (read off the curve)” value [6] was ~0.3 nM.
